The values below come from patent US20180346588A1 (MOGAM INSTITUTE FOR BIOMEDICAL RESEARCH, published 2018).

To fix the notation:
B1: clone C2G1 (MS502 light chain variable region mutation antibody) (antibody, V domains shown)
VH: EVQLLESGGGLVQPGGSLRLSCAASGFTFSNYAMSWVRQAPGKGLEWVSGIPPDSGSKYYADSVRGRFTVSRDNSKNTLYLQMNSLRAEDTAVYYCAKNMLSFDYWGQGTLVTVSS
VL: QSVLTQPPSASGTPGQRVTISCTGSSSNIGPNAVSWYQQLPGTAPKLLIYYNSKRPSGVPDRFSGSKSGTSASLAISGLRSEDEADYYCGSWDSSLSGYVFGGGTKVTVLG
notes: SPR done with IgG (human IgG1 heavy constant region)
B2: clone C3C8 (MS502 light chain variable region mutation antibody) (antibody, V domains shown)
VH: EVQLLESGGGLVQPGGSLRLSCAASGFTFSNYAMSWVRQAPGKGLEWVSGIPPDSGSKYYADSVRGRFTVSRDNSKNTLYLQMNSLRAEDTAVYYCAKNMLSFDYWGQGTLVTVSS
VL: QSVLTQPPSASGTPGQRVTISCTGSSSNIGPNAVSWYQQLPGTAPKLLIYYNSKRPSGVPDRFSGSKSGTSASLAISGLRSEDEADYYCGSWDSDLRGYVFGGGTKVTVLG
notes: as for B1
B3: clone C2G4 (MS502 light chain variable region mutation antibody) (antibody, V domains shown)
VH: EVQLLESGGGLVQPGGSLRLSCAASGFTFSNYAMSWVRQAPGKGLEWVSGIPPDSGSKYYADSVRGRFTVSRDNSKNTLYLQMNSLRAEDTAVYYCAKNMLSFDYWGQGTLVTVSS
VL: QSVLTQPPSASGTPGQRVTISCTGSSSNIGSNAVSWYQQLPGTAPKLLIYYNSKRPSGVPDRFSGSKSGTSASLAISGLRSEDEADYYCGSWDPSLNGYVFGGGTKVTVLG
notes: as for B1

This experiment deals with T1, recombinant human mesothelin (MSLN) (human, UniProt Q13421 296-580, limits assumed).
T1 construct: also called human MSLN; recombinant human MSLN
T1 sequence (Q13421 other isoform, or with tags, fused parts or gaps limits assumed): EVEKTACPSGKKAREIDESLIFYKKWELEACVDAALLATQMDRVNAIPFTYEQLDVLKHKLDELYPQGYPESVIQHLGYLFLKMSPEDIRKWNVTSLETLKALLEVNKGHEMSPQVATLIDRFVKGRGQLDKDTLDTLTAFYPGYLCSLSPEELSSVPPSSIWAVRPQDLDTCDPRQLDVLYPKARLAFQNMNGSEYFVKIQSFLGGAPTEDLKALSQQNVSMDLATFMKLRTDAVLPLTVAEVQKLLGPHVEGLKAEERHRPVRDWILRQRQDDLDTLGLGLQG
Description: SPR, Biacore T-200; MSLN amine-coupled to CM5 chip, IgG in flow. As to the method: Quantitative binding force (affinity) of the purified anti-MSLN antibodies, i.e., the MS502 clone light chain variable region mutation antibodies C2G1, C2G4, and C3C8 with regard to the recombinant human mesothelin (MSLN) was measured by using a Biacore T-200 (GE Healthcare, U.S.A.) biosensor. […] Then, the clone C2G1 antibody, the clone C2G4 antibody or the clone C3C8 antibody serially diluted with HBS-EP buffer (10 mM HEPES, pH7.4, 150 mM NaCl, 3 mM EDTA, 0.005% surfactant P20) was allowed to flow at a concentration range of 0.078 nM to 5 nM and at a flow rate of 30 μL/min for association of 120 seconds and dissociation of 1800 seconds. The dissociation of the antibody bound to the MSLN was induced by flowing 10 mM Glycine-HCl pH 1.5 at a flow rate of 30 μL/min for 30 seconds (Table 13). The affinity was obtained as movement speed constants (Kₒₙ and Koff) and an equilibrium dissociation constant (KD) by using a Biacore T-200 evaluation software (Table 14).
Usually Kd stands for a measure of binding affinity in units of concentration. Take B1: the Kd came out at 93.9 pM.

Turning to B2, the Kd amounted to 122 pM.

B3: the Kd was 43.2 pM.
